Data reported in paper doi:10.1101/2025.04.23.650173 (bioRxiv, 2025).
Where two headings read alike, the source gives them in different places.

What was measured:
AUC [1] = target: the molecule itself; experiment: AUC
AUC [2] = target: the molecule itself; experiment: AUC; remark: listed apart in the source

B1: wild type murine CXCL4 (natural protein, mouse, UniProt Q9Z126 30-105, looked up)
chain: VTSAGPEESDGDLSCVCVKTISSGIHLKHITSLEVIKAGRHCAVPQLIATLKNGRKICLDRQAPLYKKVIKKILES
- stoichiometry N (AUC [1]): 4
- stoichiometry N (AUC [2]): 2
